Molecular target: EGFR recombinant human protein (human, UniProt P00533 25-645)
Assay: SPR

Binder: AEYDFYGPGNEGSW (designed binder) [Pep24]
- Kd: 7.2 µM

Source: paper PMC6353898 (2019)
